Assay results: patent US20140286898A1 (Amgen, published 2014)
Changes are numbered by the printed parent chain. In names and notes the source's numbering stands.

T1: CD25 (IL-2Rα) on the surface of activated T cells (UniProt P01589 22-272, limits assumed)
T1 construct: whole, on cells; also called cell surface CD25
T1 sequence (looked up): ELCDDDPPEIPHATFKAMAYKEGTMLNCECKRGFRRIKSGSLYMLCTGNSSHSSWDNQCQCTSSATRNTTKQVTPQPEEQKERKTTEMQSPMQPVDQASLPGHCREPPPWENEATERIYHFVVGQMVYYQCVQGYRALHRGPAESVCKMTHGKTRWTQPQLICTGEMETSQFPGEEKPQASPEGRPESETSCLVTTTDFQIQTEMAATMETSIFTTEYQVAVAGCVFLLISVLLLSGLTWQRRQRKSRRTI

B1: HaMut1D (V69A, Q74P, N88D, C125A) (ligand)
chain: APTSSSTKKTQLQLEHLLLDLQMILNGINNYKNPKLTRMLTFKFYMPKKATELKHLQCLEEELKPLEEALNLAPSKNFHLRPRDLISDINVIVLELKGSETTFMCEYADETATIVEFLNRWITFAQSIISTLT
notes: IL-2 mutein without Fc; not shown: C-terminal FLAG and poly-His tag
B2: HaMut5D (K48E, V69A, Q74P, N88D, C125A) (ligand)
chain: B1 chain with K48E
notes: not shown: C-terminal FLAG and poly-His tag
B3: HaMut6D (E68D, V69A, Q74P, N88D, C125A) (ligand)
chain: B1 chain with E68D
notes: as for B2
B4: HaMut4D (T37A, V69A, Q74P, N88D, C125A) (ligand)
chain: B1 chain with T37A
notes: as for B2
B5: HaMut3D (K35R, V69A, Q74P, N88D, C125A) (ligand)
chain: B1 chain with K35R
notes: as for B2
B6: HaMut7D (N71R, V69A, Q74P, N88D, C125A) (ligand)
chain: B1 chain with N71R
notes: as for B2
B7: HaMut2D (N30S, V69A, Q74P, N88D, C125A) (ligand)
chain: B1 chain with N30S
notes: as for B2
B8: HaMut8D (K35R, K48E, E68D, N88D, C125A) (ligand)
chain: B1 chain with K35R, K48E, E68D, A69V, P74Q
notes: as for B2

Target: T1, CD25 (IL-2Rα) on the surface of …
Experiment: flow cytometry, binding to CD25 on the surface of activated T cells

Binder	Kd [nM]	binding result
B1	~2	–
B2	–	binds
B3	–	binds
B4	–	binds
B5	–	binds
B6	~0.2	–
B7	–	binds
B8	–	binds
